# Data: patent US11819556B2, “Stabilized compositions of radionuclides and uses thereof” (RayzeBio, Inc., priority 2021, dated 2023)
# Marks after values point to notes of the source that are not given here.
# Test: EGCg concentration: radio-TLC purity
# Type: physicochemical
# Conditions: 25 μCi/ml, 100 mM sodium ascorbate pH 5.80, 0.05 mg/ml DTPA, saline, 25° C.
# Description: The mixture was kept at room temperature (25° C.). At different time points, radioactive components of the formulated dose were measured by radio-TLC as described in the table below: […]
substance,measurement,setting,value
"(2,2′,2″-(10-(2-4(R)-1-(((4R,7S,10S,13R,16S,19R)-13-((1H-indol-3-yl)methyl)-10-(4-aminobutyl)-4-(((1S,2R)-1-carboxy-2-hydroxypropyl)carbamoyl)-16-(4-hydroxybenzyl)-7-((R)-1-hydroxyethyl)-6,9,12,15,18-pentaoxo-1,2-dithia-5,8,11,14,17-pentaazacycloicosan-19-yl)amino)-1-oxo-3-phenylpropan-2-yl)amino)-2-oxoethyl)-1,4,7,10-tetraazacyclododecane-1,4,7-triyl)triacetate; actinium-225(3+)) [[^225Ac]Ac-DOTA-TATE]",Percentage of ^225Ac present in [^225Ac]Ac-DOTA-TATE,"EGCg 0 mg/ml, 0 hour",99.90%
same,Percentage of ^225Ac present in [^225Ac]Ac-DOTA-TATE,"EGCg 0 mg/ml, 24 hours",99.42%
same,Percentage of ^225Ac present in [^225Ac]Ac-DOTA-TATE,"EGCg 0 mg/ml, 48 hours",98.73%
same,Percentage of ^225Ac present in [^225Ac]Ac-DOTA-TATE,"EGCg 0 mg/ml, 72 hours",97.77%
same,Percentage of ^225Ac present in [^225Ac]Ac-DOTA-TATE,"EGCg 0 mg/ml, 96 hours",97.13%
same,Percentage of ^225Ac present in [^225Ac]Ac-DOTA-TATE,"EGCg 0 mg/ml, 120 hours, non-homogeneous sampling",98.09* %
same,Percentage of ^225Ac present in [^225Ac]Ac-DOTA-TATE,"EGCg 0 mg/ml, 144 hours",94.64%
same,Percentage of ^225Ac present in [^225Ac]Ac-DOTA-TATE,"EGCg 0.5 mg/ml, 0 hour",99.61%
same,Percentage of ^225Ac present in [^225Ac]Ac-DOTA-TATE,"EGCg 0.5 mg/ml, 24 hours",98.92%
same,Percentage of ^225Ac present in [^225Ac]Ac-DOTA-TATE,"EGCg 0.5 mg/ml, 48 hours",98.48%
same,Percentage of ^225Ac present in [^225Ac]Ac-DOTA-TATE,"EGCg 0.5 mg/ml, 72 hours",97.97%
same,Percentage of ^225Ac present in [^225Ac]Ac-DOTA-TATE,"EGCg 0.5 mg/ml, 96 hours",96.44%
same,Percentage of ^225Ac present in [^225Ac]Ac-DOTA-TATE,"EGCg 0.5 mg/ml, 120 hours",95.65%
same,Percentage of ^225Ac present in [^225Ac]Ac-DOTA-TATE,"EGCg 0.5 mg/ml, 144 hours",93.04%
same,Percentage of ^225Ac present in [^225Ac]Ac-DOTA-TATE,"EGCg 1 mg/ml, 0 hour",99.76%
same,Percentage of ^225Ac present in [^225Ac]Ac-DOTA-TATE,"EGCg 1 mg/ml, 24 hours",99.14%
same,Percentage of ^225Ac present in [^225Ac]Ac-DOTA-TATE,"EGCg 1 mg/ml, 48 hours",98.83%
same,Percentage of ^225Ac present in [^225Ac]Ac-DOTA-TATE,"EGCg 1 mg/ml, 72 hours",98.04%
same,Percentage of ^225Ac present in [^225Ac]Ac-DOTA-TATE,"EGCg 1 mg/ml, 96 hours",97.15%
same,Percentage of ^225Ac present in [^225Ac]Ac-DOTA-TATE,"EGCg 1 mg/ml, 120 hours",94.82%
same,Percentage of ^225Ac present in [^225Ac]Ac-DOTA-TATE,"EGCg 1 mg/ml, 144 hours",95.65%
same,Percentage of ^225Ac present in [^225Ac]Ac-DOTA-TATE,"EGCg 3 mg/ml, 0 hour",99.81%
same,Percentage of ^225Ac present in [^225Ac]Ac-DOTA-TATE,"EGCg 3 mg/ml, 24 hours",98.57%
same,Percentage of ^225Ac present in [^225Ac]Ac-DOTA-TATE,"EGCg 3 mg/ml, 48 hours",98.00%
same,Percentage of ^225Ac present in [^225Ac]Ac-DOTA-TATE,"EGCg 3 mg/ml, 72 hours",96.55%
same,Percentage of ^225Ac present in [^225Ac]Ac-DOTA-TATE,"EGCg 3 mg/ml, 96 hours",96.42%
same,Percentage of ^225Ac present in [^225Ac]Ac-DOTA-TATE,"EGCg 3 mg/ml, 120 hours",96.05%
same,Percentage of ^225Ac present in [^225Ac]Ac-DOTA-TATE,"EGCg 3 mg/ml, 144 hours",90.71%
